Measurements from PMC6811539, “Minute-scale persistence of a GPCR conformation state triggered by non-cognate G protein interactions primes signaling” (Nature Communications, 2019).
Where no end group is shown, it is not given here. The star is where a group is joined. Biotin = O=C1N[C@H]2[C@H](CS[C@H]2CCCCC(=O)*)N1

Columns and labels:
β2-AR-mCerulean [1] = biological target: T1, β2-AR-mCerulean (human, UniProt P07550 1-413); test: pull-down; binding step of the binding-and-release assay: 30 μM biotinylated Gα peptide and 100 μM isoproterenol mixed 5 min with native membranes (10 nM β2-mCer) in 20 mM HEPES, 100 mM NaCl, 45 mM KCl, 5 mM MgCl2, pH 7.4; complex depleted with streptavidin-coated magnetic beads; unbound receptor from mCer fluorescence of the supernatant; KD estimated from a single point; conditions: one partner purified
T1 construct: human β2-adrenergic receptor, cDNA from Open Biosystems; Constructed 'in a similar manner' to the SPASM sensors; m1 stands for it there; also called β2-mCer; β2-mCerulean; source: HEK293T, transiently transfected, native membranes

β2-AR-mCerulean [2] = biological target: T1, β2-AR-mCerulean; test: cell-based or functional assay

Row | Kd (β2-AR-mCerulean [1]) | activation of endogenous Gs (BODIPY-FL-GTPγS) after fenoterol in native membranes with β2-AR-mCherry, with 30 μM Qp against no peptide (β2-AR-mCerulean [2]) | Binder
1 | ~30 µM |  | Biotin-DTENIRRVFNDCRDIIQRMHLRQYELL [biotinylated Sp]
2 | > 200 µM |  | Biotin-DTENIRFVFAAVKDTILQLNLKEYNLV (Gαq C-terminal α5 peptide (Qp), last 27 residues of Gαq; also called bioQp; bioQP; source: synthetic peptide (GenScript); not shown: biotin, N-terminal, kept) [biotinylated Qp]
3 |  | ~7 fold | DTENIRFVFAAVKDTILQLNLKEYNLV [Qp (Gαq C terminus peptide)]
